Measured values from the nanobody polyreactivity screen of Harvey et al. (2022).

Experiment: yeast display, Sf9 membrane polyspecificity reagent, FACS + sequencing; frameworks hold sequencing errors
In short: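 Using colony PCR, genes from sorted yeast display clones were amplified, then sequenced on MiSeq at 2 × 250 and filtered by CDR length. The clones had been stained with 10% biotinylated, detergent-solubilized Sf9 membrane reagent for 1 hour at 4 °C and sorted by FACS into low and high (top ~1%) gates on anti-HA and streptavidin fluorescence. Polyreactivity labels come from the gate of origin.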

Row | Sequence | polyreactivity (PSR sort gate)
1 | QVQLVESGGGLVQAGGSLRLSCAASGRTFGPYSMGWYRQAPGKERELVAAISSSGSTTYYADSVKGRFTISRDNAKNTVYLQMNSLKPEDTAVYYCAKPSSRDSPYDYWGQGSQVTVSS | low polyreactivity
2 | QVQLVESGGGLVQAGGSLRLSCAASGRTFGPYTMGGYIQAPGKEREFVAAIRSRGDTTYYADSVKGRFTISRDNAKNTVYLQMNSLKPEDTAVYYCAARSYFLVAGSRYDYWGQGTQVTVSS | high polyreactivity
3 | QVQLVESGGGLVQAGGSLRLSCAASGRTFGPYTMGWYRQAPGKERELVATIRSDNTYYADSVKGRFTISRDNAKNTVYLQMNSLKPEDTAVYYCNAGYYSRYSYPYKYYYWGQGTQVTVSS | high polyreactivity
4 | QVQLVESGGGLVQAGGSLRLSCAASGRTFGQHAMGWYRQAPGKDRELVASIRSGGITDYADSVKGRFTISRDNAKNTVYLQMNSLKPEDTAVYYCNAEGVWWSTRYDSWGQGTQVTVSS | low polyreactivity
5 | QVQLVESGGGLVQAGGSLRLSCAASGRTFGQNTMGWYRQAPGKERELVAAIRNRGGSTYYADSVKGRFTISRDNAKKTGYVQMNSLKPEDTAVYYCAAYPYWKGDYWGQGTQVTVSS | high polyreactivity
6 | QVQLVESGGGLVQAGGSLRLSCAASGRTFGQYAMGLYRQAPGKERELVAAITTRGGSTYYADSVKGRFTISRDNAKNTVYLQMNSLKPEDTAVYYCNADYPVKRRRGRDYWGQGTQVTVSS | high polyreactivity
7 | QVQLVESGGGLVQAGGSLRLSCAASGRTFGQYAMGWYRQAPGKEREFVAAITSSGGSTYYADSVNGRFTISRDNAKNTVYLLMNSLNPEDTAVYYCAAPISRSAGWDSYDYWGQGTQVTVSS | low polyreactivity
8 | QVQLVESGGGLVQAGGSLRLSCAASGRTFGQYVMGWYREAPGKERELVAAIRSGGSTYYADSVKGRFTISRDNAKNTVYLQMNSLKPEDTAVYYCANETYYGTDNFGQVGGEMDYWGQGTQVTVSS | low polyreactivity
9 | QVQLVESGGGLVQAGGSLRLSCAASGRTFGRNAMGWYRQAPGKERELVAAISLRGGRTYYADSVKGRFTISRDNAKNTVYLQMNSLKPEDTAVYYCAAVQPVGLYPRTKYYYWGQGTQVTVSS | high polyreactivity
10 | QVQLVESGGGLVQAGGSLRLSCAASGRTFGRNAMGWYRQAPGKERELVAAISSSADRTYYADSVKGRFTISRDNAKNNVYVEMNSLKPEDTAVYYCAARTFWGAYDYWGQGTQVTVSS | high polyreactivity
11 | QVQLVESGGGLVQAGGSLRLSCAASGRTFGRNAMGWYRQAPGKERELVAAISSSGGRTYYADSVKGRFTISRDNAKNTVYLQMNSLKPEDTAVYYCNALTYYRDYWGQGTQVTVSS | high polyreactivity
12 | QVQLVESGGGLVQAGGSLRLSCAASGRTFGRNAMGWYRQATGKERELVAPISRDGSTYYADSVKGRFTISRDNAKNTVYLQMNSLKPEDTAVYYCAADRPWYYTLTPIHGYDYWGQGTQVTVSS | low polyreactivity
13 | QVQLVESGGGLVQAGGSLRLSCAASGRTFGRNVMGWYRQAPGKERELVAAISRSGGSTYYADSVKGRFTISRDNAKNTVYLQINSLKPEDTAVYYCAAYSVGDYYWGQGTQVTVSS | high polyreactivity
14 | QVQLVESGGGLVQAGGSLRLSCAASGRTFGRYALGWYRQAPGKERELVATITSGGSTNYADSVKGRFTISRDNAKNTVYLQMNSLKPEDTAVYYCAAEFSPSRWAYSEGALRYNYWGQGTQVTVSS | low polyreactivity
15 | QVQLVESGGGLVQAGGSLRLSCAASGRTFGRYAMGGYRQAPGKERELVAAINSGGSTYYADSVKGRFTISRDNAKNTVYLQMNSLKPEDTAVYYCAADWYYWGFIFDYWGQGTQVTVSS | high polyreactivity
16 | QVQLVESGGGLVQAGGSLRLSCAASGRTFGRYAMGWSRQAPGKERELVATITSGGSTNYADSVKGRFTISRDNAKNTVYLQMNSLKPEDTAVYYCAAEFSPSRWAYSEGALRYNYWGQGTQVTVSS | low polyreactivity
17 | QVQLVESGGGLVQAGGSLRLSCAASGRTFGRYAMGWYRQAPGKEREFVASMSRRGGTTYYADSVKGRFTISRDNEKNTVYLQMNSLNPEDTAVYYCNADRTVIYDYEYWGQGTQVTVSS | low polyreactivity
18 | QVQLVESGGGLVQAGGSLRLSCAASGRTFGRYAMGWYRQAPGKERELVAAINRGGSTKYADSVKGRFTISRDNAKNTVYLQRNSQKPEDSAVYYCAKDLHPALHYDYWGQGTQVTVSS | low polyreactivity
19 | QVQLVESGGGLVQAGGSLRLSCAASGRTFGRYAMGWYRQAPGKERELVAAISWSGGSTYYADSVKGRFTISRDNAKNSVYLQMNSLKPEDTAVYYCAAYEHVYVYDYWGQGTQVTVSS | low polyreactivity
20 | QVQLVESGGGLVQAGGSLRLSCAASGRTFGRYAMGWYRQAPGKERELVAAISYSTDSTYYADSVKGRFTISRDNAKNTVYLQMNSLKPEDTAVYYCASDSVIVGSYVGDKHDYWGQGTQVTVSW | low polyreactivity
21 | QVQLVESGGGLVQAGGSLRLSCAASGRTFGRYAMGWYRQAPGKERELVAVISWSDGGTNYADSVKGRFTISRDNAKNTVYLQMNSLKPEDTAVYYCNAELSFRYPVFRELDYWGQGTQVTVSS | low polyreactivity
22 | QVQLVESGGGLVQAGGSLRLSCAASGRTFGRYAMGWYRQAPWKERELVAAITVGGGSTYYADSVKGRFTISRDNAKNTVYLQMNSLKPEDTAVYYCNALHTYTYRYDYYYWGQGTQVTVSS | high polyreactivity

Row | Sequence | polyreactivity (PSR sort gate)
23 | QVQLVESGGGLVQAGGSLRLSCAASGRTFGRYTMGWYRQAPGKERELVAAITGRGGSTFYADSVKGRFTISRDYAKNTVYLQMNSLKPEDTAVYYCAARRTSIKDQFYYWGQGTQVTVSS | high polyreactivity
24 | QVQLVESGGGLVQAGGSLRLSCAASGRTFGRYVMGWYIQAPGKERELVARISSAGGTNYADSVKGRFTISRDNAKNTVYLQMNSLKPEDTAVYYCNFTRYWRAHLGYYWGQGTQVTVSS | high polyreactivity
25 | QVQLVESGGGLVQAGGSLRLSCAASGRTFGSNAMGWFIQAPGKERELVAAISSSDSTNYADSVKGRFTISRDNAKNTVYLQMNSLKPEETAVYYCNAGHPVRSPGYDYWGQGTQVTVSS | low polyreactivity
26 | QVQLVESGGGLVQAGGSLRLSCAASGRTFGSNAMGWYRQAPGKERELVAAIRWGGGSTYYADSVKGRFTISRDNAKNTVYLQMNSLKPEDTAVYYCAAAYNWRKYDYWGQGTQVTVSS | high polyreactivity
27 | QVQLVESGGGLVQAGGSLRLSCAASGRTFGSNAMGWYRQAPGKERELVAAISVRGGRTYSADSVKGRFTISRDNAKNTVSLQMNSLKPEDTAVYYCAADPYPISKYWFYHAVDYDSWGQGTQVTVSS | high polyreactivity
28 | QVQLVESGGGLVQAGGSLRLSCAASGRTFGSNTMGWYRQAPGKERELVAAISGTGTSTYYADSVKGRFTISRDNAKNTVYLQMNSLKQEDTAVYYCAAGWYKYLFQPHDYWGQGTQVTVSS | low polyreactivity
29 | QVQLVESGGGLVQAGGSLRLSCAASGRTFGSYVMVWYRQAPGKEREFVAVISGSVGSTYYADSVKGRFTISRDNAKNTVYLQMNSLKPEDTAVYYCARRGIRTSETKQYHQYNYWGQGTQVTVSS | low polyreactivity
30 | QVQLVESGGGLVQAGGSLRLSCAASGRTFGTNTMGWYRPAPGKERELVAAISRSGVRTYYADSVKGRFTISRDNAKNTVYLQMKSLKPEDTAVYYCATDYKVHGFDYWGQGTQVTVSS | high polyreactivity
31 | QVQLVESGGGLVQAGGSLRLSCAASGRTFGTYAMGWYIQAPGKERELVAAIRSNAGSTYYADSVKGRFTISRDNAKNTVYLQMNSLKPEDNAVYYCAKSYRCSRRYNYWGQGTQVTVSS | high polyreactivity
32 | QVQLVESGGGLVQAGGSLRLSCAASGRTFGTYAMGWYRQAPGKERELVAAISTRDGSTYYADSVKGRFTISRDNAKNTVYLQMNSLKPEDTAVYYCNATWSVPSGQYDYWGQGTQVTVSS | low polyreactivity
33 | QVQLVESGGGLVQAGGSLRLSCAASGRTFGTYAMGWYRQAPGKERELVARISYTGGSTSYADSVKGRFTISRDNAKNTVYLQMNSLKPEDTAVYYCNASSRSGSWRFYYWGQGTQVTVSS | high polyreactivity
34 | QVQLVESGGGLVQAGGSLRLSCAASGRTFGTYAMGWYRQEPGKERELFATISSGGSTYYADSVKGRFTISRDNAKNTVYLLMNSLKPEDTAVYYCAAYRYFRPGDYWGQGTQVNVSS | low polyreactivity
35 | QVQLVESGGGLVQAGGSLRLSCAASGRTFGTYVMGWYRQAPGKERELVAAITGSGGSTYYADSVKGRFTISRDNAKNTVYLQMNSLKPEDPAVYYCAARAYQHYNWGQGTQVTVSS | high polyreactivity
36 | QVQLVESGGGLVQAGGSLRLSCAASGRTFGVNAMGWYRQAPRKERELVARIRVSGGRTYYADSVKGRFTISRDNAKNSVYLLMNSLKPEDTAVYYCNAGDTYNRVIWPYYYCGQGTQVTVSS | high polyreactivity
37 | QVQLVESGGGLVQAGGSLRLSCAASGRTFGVYAMGWYRQAPGKERELVAAIRWSGGGTYYADSVKGRFTISPDNAKNTVYLQMNSLKPEDTAVYYCAATFQNSPYTRYTDMYYWGQGTQVTVSS | low polyreactivity
38 | QVQLVESGGGLVQAGGSLRLSCAASGRTFGVYAMGWYRQAPGKERELVAAISKSDGSTYYADSVKGRFTISRDNAKNTVYLQMNSLKPEDTAVYYCATVTRHQRDTQYDYWGQGTQVTVSS | low polyreactivity
39 | QVQLVESGGGLVQAGGSLRLSCAASGRTFGVYAMGWYRQAPGKERELVAGIRWRGGSTYYADSVKGRFTISRDNAKNTVYLQMNSLKPEDTAVYYCAAKVYYLYDSIWAWVIIRYDYWGQGTQVTVSS | low polyreactivity
40 | QVQLVESGGGLVQAGGSLRLSCAASGRTFGVYAMGWYRQAPGKERELVATIRRGGSTYYADSVKGRFTISRDNAKNTVYLQMNSLKPEDTAVYYCNASHVTWNRKYDYWGQGTQVTVSS | low polyreactivity
41 | QVQLVESGGGLVQAGGSLRLSCAASGRTFGVYAMGWYRQAPGKERELVPAIRWSGGGTYYADSVKGRFTISRDTAKNTVYVQMNSLKPEDTAVYYCAASFQNSPYTRYTDMYYWGQGTQVTVTS | low polyreactivity
42 | QVQLVESGGGLVQAGGSLRLSCAASGRTFGVYMGWYRQAPGKERELVAVISSGDSTNYADSVKGRFTISRDNAKNTVYLQMNSLKPEDTAVYYCNAYGSDRLTLDDYWGQGTQVTVSS | low polyreactivity
43 | QVQLVESGGGLVQAGGSLRLSCAASGRTFGWNAMGWSRQAPGKERELVAAISRTGNTYYADSVKGRFTISRDNAKNTVYLQMNSLKPEDTAVYYCAKGRYYTPTYFRGVDLYDYWGQGTQVTVSS | low polyreactivity
